Measured values published in article PMC3832594, “The Neuroplastin Adhesion Molecules Are Accessory Proteins That Chaperone the Monocarboxylate Transporter MCT2 to the Neuronal Cell Surface” (PLoS ONE, 2013).

Target: T1, MCT2 tagged at its N-terminus with CFP (rat, UniProt Q63344 1-489)
T1 construct: Monocarboxylate transporter MCT2; also called MCT2-ECFP (N-terminal); MCT2-CFP; source: COS-7, transiently transfected (Fugene 6), in live cells; not shown: ECFP, N-terminal, kept
T1 sequence (looked up): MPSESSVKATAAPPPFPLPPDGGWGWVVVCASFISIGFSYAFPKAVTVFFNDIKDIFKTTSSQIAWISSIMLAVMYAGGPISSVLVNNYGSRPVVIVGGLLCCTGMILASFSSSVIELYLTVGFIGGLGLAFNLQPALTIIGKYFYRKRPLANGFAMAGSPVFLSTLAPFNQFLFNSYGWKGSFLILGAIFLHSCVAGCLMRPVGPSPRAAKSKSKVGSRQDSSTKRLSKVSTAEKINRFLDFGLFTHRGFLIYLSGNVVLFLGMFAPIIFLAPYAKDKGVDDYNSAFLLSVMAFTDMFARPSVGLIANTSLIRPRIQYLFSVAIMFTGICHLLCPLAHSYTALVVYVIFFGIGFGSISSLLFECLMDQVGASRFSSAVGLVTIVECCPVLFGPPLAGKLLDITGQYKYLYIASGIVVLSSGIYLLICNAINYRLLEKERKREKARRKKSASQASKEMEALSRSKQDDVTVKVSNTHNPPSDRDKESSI
Test: FRET or BRET; live COS-7 cells co-transfected with MCT2-ECFP (N-terminal) and np55- or np65-EYFP (C-terminal), 48 h after transfection; 37°C, imaging buffer pH 7.4; ratio of emission at 480 nm to 530 nm on excitation at 430 nm (MCT2-CFP alone 1.33±0.016)
Conditions: partners not purified

480:530 nm fluorescence emission ratio (FRET): 0.792
B1: np65 C-terminally labelled with YFP (natural protein)
chain: not shown
notes: Neuroplastin np65, the form with 3 Ig domains; also called np65-EYFP (C-terminal); np65-YFP; source: COS-7, transiently transfected (Fugene 6), in live cells; not shown: EYFP, C-terminal, kept
